The record followed here is patent US20240010722A1 (published 2024).

For one experiment, the target named is T1, human MAdCAM (human, UniProt Q13477 19-317, limits assumed).
T1 construct: also called huMAdCAM; human MAdCAM-1
T1 sequence (looked up): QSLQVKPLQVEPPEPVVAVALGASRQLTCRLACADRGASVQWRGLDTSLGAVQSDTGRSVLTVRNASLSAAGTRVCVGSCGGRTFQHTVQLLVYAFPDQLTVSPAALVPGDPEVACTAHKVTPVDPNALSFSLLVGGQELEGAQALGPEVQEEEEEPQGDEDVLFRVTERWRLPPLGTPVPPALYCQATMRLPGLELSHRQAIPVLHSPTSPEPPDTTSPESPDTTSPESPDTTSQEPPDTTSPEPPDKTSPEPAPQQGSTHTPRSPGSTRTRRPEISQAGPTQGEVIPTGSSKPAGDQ
The experiment is described as follows: BLI (Octet), binder on AHC tips. The method, boiled down:
(§1)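 Octet96 RED assay with anti-human IgG Fc biosensors equilibrated 20 minutes in assay buffer. Test article at 10 μg/mL in assay buffer was loaded onto tips for 240 s. Association with MAdCAM lasted 120 s and dissociation in assay buffer 120 s; MAdCAM-1 was a seven-point serial dilution from 200 nM down to 3.13 nM. Kinetic rates and dissociation constant came from a global one-to-one fit in the Octet data analysis software.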

Another experiment addresses T2, mouse MAdCAM (mouse, UniProt Q61826 22-365, limits assumed).
T2 construct: also called mouse MAdCAM-1; muMAdCAM
T2 sequence (looked up): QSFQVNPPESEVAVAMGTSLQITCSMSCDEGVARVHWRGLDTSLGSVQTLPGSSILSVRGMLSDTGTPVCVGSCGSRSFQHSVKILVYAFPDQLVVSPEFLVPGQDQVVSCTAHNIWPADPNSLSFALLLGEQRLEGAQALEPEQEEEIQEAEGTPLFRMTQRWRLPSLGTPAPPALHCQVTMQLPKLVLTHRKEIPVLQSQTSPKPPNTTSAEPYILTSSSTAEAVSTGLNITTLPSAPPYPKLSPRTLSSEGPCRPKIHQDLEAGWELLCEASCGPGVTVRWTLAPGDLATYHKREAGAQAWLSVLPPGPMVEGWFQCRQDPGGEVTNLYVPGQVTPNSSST
The experiment is described as follows: BLI (Octet), binder on AHC tips. Summed up: as §1
For orientation: Biolayer interferometry detects binding as a change in optical thickness at a sensor tip.

Where a chain is given by its changes, count along the chain named.

B1: PMAB27 (bispecific antibody, human IgG1, kappa)
heavy: EVQLLESGGGLVQPGGSLRLSCAASGFTFSNSDMSWVRQAPGKGLEWVSGITISGGSTYYADSVKGRFTISRDNSKNTLYLQMNSLRAEDTAVYYCARGRGGSGWLDYWGQGTLVTVSSASTKGPSVFPLAPSSKSTSGGTAALGCLVKDYFPEPVTVSWNSGALTSGVHTFPAVLQSSGLYSLSSVVTVPSSSLGTQTYICNVNHKPSNTKVDKKVEPKSCDKTHTCPPCPAPEAAGAPSVFLFPPKPKDTLMISRTPEVTCVVVDVSHEDPEVKFNWYVDGVEVHNAKTKPREEQYNSTYRVVSVLTVLHQDWLNGKEYKCKVSNKALPAPIEKTISKAKGQPREPQVYTLPPSREEMTKNQVSLTCLVKGFYPSDIAVEWESNGQPENNYKTTPPVLDSDGSFFLYSKLTVDKSRWQQGNVFSCSVMHEALHNHYTQKSLSLSPGGGGGSGGGGSGGGGSEVQLLESGGGLVQPGGSLRLSCAASGFTFSDFWMHWVRQAPGKGLEWISYISGDSGSTNYADSVKGRFTISRDNSKNTLYLQMNSLRAEDTAVYYCARDRPYYYYMDVWGKGTTVTVSSGGGGSGGGGSGGGGSGGGGSDIQMTQSPSSLSASVGDRVTITCRASQSVSRSLAWYQQKPGKAPKLLIYAASSLQSGVPSRFSGSGSGTDFTLTISSLQPEDFATYYCQQYKSYPVTFGQGTKVEIK
light: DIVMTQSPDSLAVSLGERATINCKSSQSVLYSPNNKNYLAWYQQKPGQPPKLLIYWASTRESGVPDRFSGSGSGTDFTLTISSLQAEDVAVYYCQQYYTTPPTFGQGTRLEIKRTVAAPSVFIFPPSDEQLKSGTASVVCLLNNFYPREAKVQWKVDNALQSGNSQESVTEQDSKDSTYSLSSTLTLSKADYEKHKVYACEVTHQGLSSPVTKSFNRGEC
In the experiment with human MAdCAM, B1 registered a Kd of 92.2 nM and a koff of 0.128 s⁻¹. Besides, in the experiment with mouse MAdCAM, binding was characterised by a dissociation constant (Kd) of 1020 nM, the koff worked out at 0.00469 s⁻¹, the kon is 4580 M⁻¹ s⁻¹ and the response was 0.0278.

B2: PMAB42 (bispecific antibody, human IgG1, kappa)
heavy: B1 heavy with S520Y, Y696T
light: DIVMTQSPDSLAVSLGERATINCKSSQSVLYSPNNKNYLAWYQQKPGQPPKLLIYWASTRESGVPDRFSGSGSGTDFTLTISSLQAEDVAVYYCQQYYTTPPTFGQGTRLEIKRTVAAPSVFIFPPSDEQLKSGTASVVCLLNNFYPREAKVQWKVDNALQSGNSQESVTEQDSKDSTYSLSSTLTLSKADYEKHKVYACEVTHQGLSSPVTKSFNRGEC
Regarding B2, in the experiment with human MAdCAM, the Kd came out at 395 nM, the koff is 0.114 s⁻¹ and the kon stood at 288000 M⁻¹ s⁻¹. In the experiment with mouse MAdCAM, binding was put at a Kd of 105 nM, the koff came to 0.017 s⁻¹, the on-rate (kon) came to 162000 M⁻¹ s⁻¹ and the response turned out to be 0.129.

B3: PMAB36 (bispecific antibody, human IgG1, kappa)
heavy: B1 heavy with S520Y, V631I
light: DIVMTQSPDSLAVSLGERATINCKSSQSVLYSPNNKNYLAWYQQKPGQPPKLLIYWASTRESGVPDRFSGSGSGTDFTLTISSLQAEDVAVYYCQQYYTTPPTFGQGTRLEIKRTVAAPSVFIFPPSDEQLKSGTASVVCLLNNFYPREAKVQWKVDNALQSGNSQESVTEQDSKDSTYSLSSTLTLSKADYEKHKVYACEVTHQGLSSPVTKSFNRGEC
In the experiment with human MAdCAM, B3 gave a Kd of 109 nM, a koff of 0.0325 s⁻¹ and a kon of 298000 M⁻¹ s⁻¹. Also, in the experiment with mouse MAdCAM, binding was characterised by a dissociation constant (Kd) of 206 nM, the off-rate (koff) was found to be 0.0251 s⁻¹, the kon amounted to 122000 M⁻¹ s⁻¹ and the response came out at 0.169.

B4: PMAB37 (bispecific antibody, human IgG1, kappa)
heavy: B1 heavy with S520Y, R633S
light: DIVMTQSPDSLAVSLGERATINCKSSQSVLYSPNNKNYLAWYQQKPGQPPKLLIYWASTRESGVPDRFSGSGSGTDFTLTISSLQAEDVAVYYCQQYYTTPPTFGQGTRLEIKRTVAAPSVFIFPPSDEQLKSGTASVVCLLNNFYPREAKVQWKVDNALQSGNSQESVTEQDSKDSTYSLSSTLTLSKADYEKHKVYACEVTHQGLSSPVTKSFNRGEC
As to B4, in the experiment with human MAdCAM, the affinity, expressed as Kd, was 285 nM; the koff worked out at 0.0838 s⁻¹; the kon turned out to be 294000 M⁻¹ s⁻¹. In the experiment with mouse MAdCAM, this molecule had a Kd of 176 nM, a koff of 0.0178 s⁻¹, a kon of 101000 M⁻¹ s⁻¹ and a response of 0.152.

B5: PMAB28 (bispecific antibody, human IgG1, kappa)
heavy: B1 heavy with S520Y, N522Y
light: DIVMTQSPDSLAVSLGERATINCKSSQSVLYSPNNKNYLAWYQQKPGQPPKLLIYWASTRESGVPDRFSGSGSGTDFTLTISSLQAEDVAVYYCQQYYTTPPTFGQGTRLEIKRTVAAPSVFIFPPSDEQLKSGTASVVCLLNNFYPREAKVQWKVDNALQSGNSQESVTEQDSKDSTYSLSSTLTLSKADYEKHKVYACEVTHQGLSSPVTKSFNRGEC
In the experiment with human MAdCAM, B5 displayed a Kd of 86.2 nM, a koff of 0.0902 s⁻¹ and a kon of 1.05e+06 M⁻¹ s⁻¹. Further, in the experiment with mouse MAdCAM, binding was characterised by a dissociation constant (Kd) of 103 nM, the koff was found to be 0.00886 s⁻¹, the kon was 85900 M⁻¹ s⁻¹ and the response was determined as 0.083.

Usually Kd stands for the free concentration of one partner at which half of the binding sites on the other are occupied at equilibrium, for simple one-to-one binding. A word on the koff: it is a measure of how fast the partners let go of each other. A higher koff goes with fast dissociation. The term kon denotes the second-order rate constant of association.
